In PMC6961784:

Key:
[1] = molecular target: SNAPf-tagged EWS/FLI1 (human); test: live-cell single-particle tracking
[2] = molecular target: FUS LCD (UniProt P35637); test: live-cell single-particle tracking
Chain of UniProt P35637 (P35637 2-214): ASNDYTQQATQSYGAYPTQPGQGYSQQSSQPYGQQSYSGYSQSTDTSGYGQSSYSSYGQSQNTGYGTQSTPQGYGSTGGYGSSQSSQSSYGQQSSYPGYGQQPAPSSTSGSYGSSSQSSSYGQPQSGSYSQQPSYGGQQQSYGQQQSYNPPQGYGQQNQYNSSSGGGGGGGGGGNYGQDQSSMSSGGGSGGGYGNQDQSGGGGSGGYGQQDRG

Row | Substance | residence time (RT) [1] | residence time (RT) [2]
1 | EWS(YS) LCD-Halo (domain or fragment) | 7 s | –
2 | EWS LCD-Halo (domain or fragment) | 16 s | –
3 | Sp1 LCD (from UniProt P08047 1-785) (domain or fragment) | – | < 1 s
